Source: patent publication US20200332306

Columns and labels:
[1] = biological target: Sth7710 Type I-E Cascade plus Cas3 nickase (Streptococcus thermophilus DGCC7710) (UniProt F2XG53); experiment: cell_activity
[2] = tested on: Sth7710 Type I-E Cascade, Cas5, Cas6 and Cse1 each AtCBF1-linked (Streptococcus thermophilus DGCC7710); experiment: cell_activity; conditions: PAM AA 5'; value for R1 guides pooled (A2+, A4+, A1-); SE 18.9; no-guide control 0

| Sequence | activity (% mutant reads) ([1]; paired nicking A2+/A3-, A2+/A1- pair gave 0.02%, PAM AA 5') | activity (anthocyanin positive cells) [2] | activity (% mutant reads) ([1]; paired nicking A4+/A3-, PAM not printed for A3-) | activity (% mutant reads) ([1]; paired nicking A4+/A1-, PAM AA 5') |
| --- | --- | --- | --- | --- |
| GUGAUCCNNNNNNNNNNNNNNNNNNNNNNNNNNNNNNNNNGUUUUUCCCGCACACGCGGGGGAGGGUCUACUUCCAUCACCGUCUUGCUCGGUC / GAGGGTCTACTTCCATCACCGTCTTGCTCGGTC / GACCGAGCAAGACGGTGATGGAAGTAGACCCTC [R1 A2+ guide RNA ; R1 A2+ protospacer] | 0.06 | 153 |  |  |
| GUGAUCCNNNNNNNNNNNNNNNNNNNNNNNNNNNNNNNNNGUUUUUCCCGCACACGCGGGGCACUACUGCUGUUCAUGUACAGUUUAAGCACUA / CACTACTGCTGTTCATGTACAGTTTAAGCACTA / TAGTGCTTAAACTGTACATGAACAGCAGTAGTG [R1 A3- guide RNA ; R1 A3- protospacer] |  |  | 0.03 |  |
| GUGAUCCNNNNNNNNNNNNNNNNNNNNNNNNNNNNNNNNNGUUUUUCCCGCACACGCGGGGCAGCAGUAGUGUUACAGAAGCUAAACUCAACCA / CAGCAGTAGTGTTACAGAAGCTAAACTCAACCA / TGGTTGAGTTTAGCTTCTGTAACACTACTGCTG [R1 A4+ guide RNA ; R1 A4+ protospacer] |  | 153 |  | 0.06 |
| GUGAUCCNNNNNNNNNNNNNNNNNNNNNNNNNNNNNNNNNGUUUUUCCCGCACACGCGGGGUUUAUGGACAGAGCUCCAAGUGACCGAGCAAGA / TTTATGGACAGAGCTCCAAGTGACCGAGCAAGA / TCTTGCTCGGTCACTTGGAGCTCTGTCCATAAA [R1 A1- guide RNA ; R1 A1- protospacer] |  | 153 |  |  |
